Target: the molecule itself
Test: crystal structure; PseM (28-186) at 27 mg/ml; 0.1 M Mes monohydrate pH 7.0, 2.0 M NaCl, 1% benzamidine-HCl, 291 K; SAD, 2.0 Å, space group P4(3)2(1)2; homodimer in the asymmetric unit

B1: N-terminal-truncated PseM (residues from 28 to 186) (enzyme)
chain: STGDYWIVYGKGERYNNEVFVANATGILQQPKGIQSAQIIQLFEDRSMPTLTAYEVQFKCKERRVRFDNARAMRRIDNVITNVKTVDGWIDPEKYDYWLQRSFAFVCAPAIRDNNQMLPLGKMPIARMVQTVQAMFVELQGVQAKKQTMRDLDAMLGNE
notes: PseM (PA0989), P. aeruginosa, residues 28 to 186, without the N-terminal signal peptide
In the case of B1, the “stoichiometry N” value is reported as 2.

— publication PMC12494544 (The Journal of Biological Chemistry, 2025)
